In article PMC9838529:
Where “and” joins values, the source holds several entries; their conditions need not be identical. Identical values can stand only once.

What was measured:
[1] = target: aE11 IgG (mouse); assay: SPR; aE11 IgG amine-coupled to a CM5 chip (~7000 RU), monomeric C9 as analyte; Biacore T200, 25 °C; 10 mM HEPES-NaOH pH 7.2, 150 mM NaCl, 1 mM EDTA, 0.005% P20; multi-cycle kinetics; off rate from a simple exponential decay (1:1 model); steady state not reached
[2] = target: monoclonal mouse antibody aE11 (full IgG) (mouse); assay: SPR; aE11 IgG amine-coupled to a CM5 chip (~7000 RU), monomeric C9 as analyte; Biacore T200, 25 °C; 10 mM HEPES-NaOH pH 7.2, 150 mM NaCl, 1 mM EDTA, 0.005% P20; multi-cycle kinetics; off rate from a simple exponential decay (1:1 binding model); n = 2
Chain of monoclonal mouse antibody aE11 (full IgG) (mouse) (heavy, as listed by the source, chain 1 of 2): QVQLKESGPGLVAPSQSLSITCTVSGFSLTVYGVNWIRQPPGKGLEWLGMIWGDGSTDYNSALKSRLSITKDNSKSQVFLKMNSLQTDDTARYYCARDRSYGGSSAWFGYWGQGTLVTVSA
Chain of monoclonal mouse antibody aE11 (full IgG) (mouse) (light, as listed by the source, chain 2 of 2): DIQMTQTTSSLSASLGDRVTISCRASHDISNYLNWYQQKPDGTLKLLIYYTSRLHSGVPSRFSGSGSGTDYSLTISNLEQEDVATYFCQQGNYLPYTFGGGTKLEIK

[3] = target: polyC9 (in vitro homo-oligomerised human C9, wild type) (human); assay: cryo-EM structure; aE11-Fab mixed with polyC9 in stoichiometric quantities; 1 mg/ml in 10 mM HEPES, 50 mM NaCl, pH 7.2; symmetry expansion and focused refinement of three C9 protomers and two Fab variable regions

Chain of aE11 IgG (mouse) (heavy, as listed by the source, chain 1 of 2): as the sequence (heavy, as listed by the source, chain 1 of 2) above
Chain of aE11 IgG (mouse) (light, as listed by the source, chain 2 of 2): as the sequence (light, as listed by the source, chain 2 of 2) above
Chain of human complement C9, wild type, monomeric (P02748 22-559): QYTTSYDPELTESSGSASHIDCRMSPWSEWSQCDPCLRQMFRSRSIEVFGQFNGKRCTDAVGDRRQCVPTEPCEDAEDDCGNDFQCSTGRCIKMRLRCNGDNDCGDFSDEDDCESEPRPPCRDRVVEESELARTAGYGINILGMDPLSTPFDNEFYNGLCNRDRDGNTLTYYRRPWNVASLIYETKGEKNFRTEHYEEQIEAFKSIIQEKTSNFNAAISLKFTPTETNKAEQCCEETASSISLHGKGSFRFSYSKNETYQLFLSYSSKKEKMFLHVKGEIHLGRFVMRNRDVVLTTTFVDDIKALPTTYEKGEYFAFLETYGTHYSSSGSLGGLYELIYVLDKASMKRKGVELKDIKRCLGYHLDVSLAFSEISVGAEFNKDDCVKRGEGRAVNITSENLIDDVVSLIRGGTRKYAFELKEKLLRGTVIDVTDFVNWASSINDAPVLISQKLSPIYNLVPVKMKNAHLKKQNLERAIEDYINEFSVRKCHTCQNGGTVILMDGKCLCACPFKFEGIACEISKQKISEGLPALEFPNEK
Chain of monomeric human C9, wild type (recombinant) (P02748 22-559): as above

disulphide-trapped C9 variant (F262C/V405C) (from UniProt P02748 22-559) (natural protein)
koff [1]: 0.0001 s⁻¹

human complement C9 F262C/V405C, disulphide-trapped, monomeric (from UniProt P02748 22-559) (natural protein)
koff [2]: 0.000267 s⁻¹ and 0.000353 s⁻¹

human complement C9 P72E, monomeric (from UniProt P02748 22-559) (natural protein)
koff [2]: 0.000106 s⁻¹ and 6.14e-05 s⁻¹

human complement C9 R65Q, monomeric (from UniProt P02748 22-559) (natural protein)
koff [2]: 0.000214 s⁻¹ and 8.63e-05 s⁻¹

human complement C9 V68E, monomeric (from UniProt P02748 22-559) (natural protein)
koff [2]: 3.11e-05 s⁻¹ and 3.58e-05 s⁻¹

human complement C9, wild type, monomeric (from UniProt P02748 22-559) (natural protein)
koff [2]: 0.000169 s⁻¹ and 0.000183 s⁻¹

monomeric human C9 P72E (from UniProt P02748 22-559) (natural protein)
fold reduction of binding against wild-type monomeric C9 [1]: 2 fold
koff [1]: 0.0001 s⁻¹

monomeric human C9 R65Q (from UniProt P02748 22-559) (natural protein)
koff [1]: 0.0001 s⁻¹

monomeric human C9 V68E (from UniProt P02748 22-559) (natural protein)
fold reduction of binding against wild-type monomeric C9 [1]: 2 fold
koff [1]: 0.0001 s⁻¹

monomeric human C9, wild type (recombinant) (from UniProt P02748 22-559) (natural protein)
Kd [1]: 500 to 2000 nM
koff [1]: 0.0001 s⁻¹

polyC9 (in vitro homo-oligomerised human C9, wild type) (complex)
stoichiometry N [3]: 22
